Measurements taken from the supplement of paper PMC10065799, “High-throughput profiling of sequence recognition by tyrosine kinases and SH2 domains using bacterial peptide display” (eLife, 2023).

Columns and labels:
Hck = Hck (UniProt P08631); assay: phosphorylation enrichment, bacterial display (enrichment ratio); higher = better substrate or ligand; peptides without Tyr show the background
c-Src = assay: as above
Jak2 = Jak2 (UniProt O60674); assay: as above
Fyn = Fyn (UniProt P06241); assay: as above
EPHB2 = EPHB2 (UniProt P29323); assay: as above
EPHB1 = EPHB1 (UniProt P54762); assay: as above
AncSZ = assay: as above
Fer (mouse) = assay: as above
MERTK = MERTK (UniProt Q12866); assay: as above
FGFR3 = FGFR3 (UniProt P22607); assay: as above
Fes = Fes (UniProt P07332); assay: as above
c-Abl (mouse) = assay: as above
FGFR1 = FGFR1 (UniProt P11362); assay: as above
c-Src SH2 = assay: SH2 binding enrichment of the phosphorylated peptide, bacterial display (enrichment ratio); higher = better substrate or ligand; peptides without Tyr show the background
SHP2-C SH2 = assay: as above
Grb2 SH2 = Grb2 SH2 (UniProt P62993); assay: as above
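For SH2 binding enrichment of the phosphorylated peptide, bacterial display in this document: peptide library displayed on the E. coli surface as eCPX fusions, selected cells deep-sequenced, score is each peptide's frequency after selection divided by its frequency in the input.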
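For phosphorylation enrichment, bacterial display in this document: 11-residue human phosphosite peptides and single-mutation variants displayed on the E. coli surface, counted by deep sequencing, each peptide's frequency after selection divided by its frequency in the unselected input library; frequency after pTyr selection over input frequency; kinase dosed for 20-30% of maximal phosphorylation in three min.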

Sequence of EPHB1 (P54762 whole entry, looked up): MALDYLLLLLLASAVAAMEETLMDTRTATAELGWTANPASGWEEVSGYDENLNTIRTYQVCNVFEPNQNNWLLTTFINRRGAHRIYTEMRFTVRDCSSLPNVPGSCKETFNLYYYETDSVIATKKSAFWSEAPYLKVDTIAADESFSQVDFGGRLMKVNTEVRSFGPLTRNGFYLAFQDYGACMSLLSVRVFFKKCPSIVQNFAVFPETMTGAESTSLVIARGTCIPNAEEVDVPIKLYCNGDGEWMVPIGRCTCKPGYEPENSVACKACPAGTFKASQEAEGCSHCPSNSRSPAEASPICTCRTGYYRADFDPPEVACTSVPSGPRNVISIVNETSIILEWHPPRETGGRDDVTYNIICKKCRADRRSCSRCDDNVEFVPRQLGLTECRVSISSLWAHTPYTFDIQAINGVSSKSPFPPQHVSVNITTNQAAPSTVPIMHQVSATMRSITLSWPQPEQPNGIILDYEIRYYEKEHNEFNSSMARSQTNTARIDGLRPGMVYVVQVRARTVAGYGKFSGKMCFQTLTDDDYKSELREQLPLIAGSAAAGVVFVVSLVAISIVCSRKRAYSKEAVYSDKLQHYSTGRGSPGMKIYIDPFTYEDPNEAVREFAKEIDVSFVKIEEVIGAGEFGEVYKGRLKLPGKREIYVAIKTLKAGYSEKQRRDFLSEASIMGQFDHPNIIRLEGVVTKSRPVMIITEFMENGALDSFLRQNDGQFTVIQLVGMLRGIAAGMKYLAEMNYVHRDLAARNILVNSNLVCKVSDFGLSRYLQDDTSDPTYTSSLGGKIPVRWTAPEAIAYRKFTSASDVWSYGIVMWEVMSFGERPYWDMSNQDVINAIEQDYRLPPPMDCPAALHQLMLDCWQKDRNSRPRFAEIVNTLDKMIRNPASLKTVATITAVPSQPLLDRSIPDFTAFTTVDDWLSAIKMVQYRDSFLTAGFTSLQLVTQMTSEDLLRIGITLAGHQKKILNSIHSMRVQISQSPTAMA
Sequence of Jak2 (O60674 whole entry, looked up): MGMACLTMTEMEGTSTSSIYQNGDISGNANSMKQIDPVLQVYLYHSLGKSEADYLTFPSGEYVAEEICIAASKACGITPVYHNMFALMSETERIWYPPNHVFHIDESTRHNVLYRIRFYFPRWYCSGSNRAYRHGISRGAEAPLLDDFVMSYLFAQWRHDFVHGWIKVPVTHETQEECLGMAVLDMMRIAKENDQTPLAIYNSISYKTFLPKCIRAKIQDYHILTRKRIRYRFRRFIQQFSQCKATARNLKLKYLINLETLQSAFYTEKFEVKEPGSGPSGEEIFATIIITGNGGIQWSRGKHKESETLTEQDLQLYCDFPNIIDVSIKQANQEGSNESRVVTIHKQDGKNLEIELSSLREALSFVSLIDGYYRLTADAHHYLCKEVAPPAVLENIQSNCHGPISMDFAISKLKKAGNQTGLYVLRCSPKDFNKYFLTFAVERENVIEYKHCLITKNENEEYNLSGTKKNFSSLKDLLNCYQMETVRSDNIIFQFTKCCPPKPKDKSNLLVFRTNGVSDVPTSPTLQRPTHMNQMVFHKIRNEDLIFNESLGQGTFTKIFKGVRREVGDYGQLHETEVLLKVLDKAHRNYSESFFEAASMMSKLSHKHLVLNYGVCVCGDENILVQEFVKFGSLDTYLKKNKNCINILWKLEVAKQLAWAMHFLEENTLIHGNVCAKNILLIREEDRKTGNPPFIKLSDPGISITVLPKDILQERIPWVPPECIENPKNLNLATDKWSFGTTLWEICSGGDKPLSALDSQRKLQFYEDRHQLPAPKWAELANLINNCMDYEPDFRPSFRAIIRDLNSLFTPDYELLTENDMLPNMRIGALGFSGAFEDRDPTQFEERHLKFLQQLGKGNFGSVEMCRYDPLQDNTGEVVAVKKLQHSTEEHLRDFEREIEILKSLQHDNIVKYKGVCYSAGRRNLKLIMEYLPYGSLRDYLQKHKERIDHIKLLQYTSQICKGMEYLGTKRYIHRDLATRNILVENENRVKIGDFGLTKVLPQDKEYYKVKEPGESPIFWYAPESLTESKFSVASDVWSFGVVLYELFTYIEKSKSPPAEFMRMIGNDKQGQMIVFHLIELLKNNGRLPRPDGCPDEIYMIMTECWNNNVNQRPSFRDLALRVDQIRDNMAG
Sequence of MERTK (Q12866 whole entry, looked up): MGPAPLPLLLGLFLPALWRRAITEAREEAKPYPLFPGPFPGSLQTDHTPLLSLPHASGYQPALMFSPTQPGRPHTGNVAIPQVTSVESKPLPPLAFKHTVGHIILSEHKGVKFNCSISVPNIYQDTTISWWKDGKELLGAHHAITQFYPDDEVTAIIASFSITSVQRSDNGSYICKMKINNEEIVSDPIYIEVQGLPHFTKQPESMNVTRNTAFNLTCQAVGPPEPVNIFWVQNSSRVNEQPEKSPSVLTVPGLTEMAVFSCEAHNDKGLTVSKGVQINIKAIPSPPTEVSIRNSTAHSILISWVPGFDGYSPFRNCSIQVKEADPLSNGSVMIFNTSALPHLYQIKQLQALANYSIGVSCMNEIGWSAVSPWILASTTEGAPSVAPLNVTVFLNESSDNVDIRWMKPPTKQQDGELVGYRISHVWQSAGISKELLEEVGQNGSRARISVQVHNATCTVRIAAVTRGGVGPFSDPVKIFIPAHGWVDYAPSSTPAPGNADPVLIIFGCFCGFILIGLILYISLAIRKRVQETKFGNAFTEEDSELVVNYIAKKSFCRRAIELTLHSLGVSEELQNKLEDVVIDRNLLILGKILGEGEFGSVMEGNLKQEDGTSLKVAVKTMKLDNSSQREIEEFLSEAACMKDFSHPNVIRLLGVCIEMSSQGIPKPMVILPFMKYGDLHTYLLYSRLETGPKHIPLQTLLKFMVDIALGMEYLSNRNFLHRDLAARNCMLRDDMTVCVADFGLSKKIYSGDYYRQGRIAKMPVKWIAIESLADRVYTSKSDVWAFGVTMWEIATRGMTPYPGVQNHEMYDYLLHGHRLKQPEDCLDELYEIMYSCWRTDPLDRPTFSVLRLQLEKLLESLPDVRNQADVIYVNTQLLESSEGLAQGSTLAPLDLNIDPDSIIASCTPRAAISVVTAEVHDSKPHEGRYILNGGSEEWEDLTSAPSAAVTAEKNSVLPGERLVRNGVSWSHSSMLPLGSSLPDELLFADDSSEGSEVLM
Sequence of Hck (P08631 whole entry, looked up): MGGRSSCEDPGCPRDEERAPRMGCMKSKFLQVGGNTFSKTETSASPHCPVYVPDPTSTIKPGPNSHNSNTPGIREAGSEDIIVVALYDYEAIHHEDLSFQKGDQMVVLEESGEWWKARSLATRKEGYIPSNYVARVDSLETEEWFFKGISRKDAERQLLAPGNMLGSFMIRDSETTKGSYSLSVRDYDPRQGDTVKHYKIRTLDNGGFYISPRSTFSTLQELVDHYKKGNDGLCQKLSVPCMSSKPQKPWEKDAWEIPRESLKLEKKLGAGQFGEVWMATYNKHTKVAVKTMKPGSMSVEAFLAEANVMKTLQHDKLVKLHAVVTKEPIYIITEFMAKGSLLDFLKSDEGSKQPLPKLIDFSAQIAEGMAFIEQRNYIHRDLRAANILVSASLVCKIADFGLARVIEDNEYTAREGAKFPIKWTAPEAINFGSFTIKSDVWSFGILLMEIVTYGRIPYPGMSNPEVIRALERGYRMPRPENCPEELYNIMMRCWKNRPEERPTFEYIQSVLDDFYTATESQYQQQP
Sequence of FGFR1 (P11362 whole entry, looked up): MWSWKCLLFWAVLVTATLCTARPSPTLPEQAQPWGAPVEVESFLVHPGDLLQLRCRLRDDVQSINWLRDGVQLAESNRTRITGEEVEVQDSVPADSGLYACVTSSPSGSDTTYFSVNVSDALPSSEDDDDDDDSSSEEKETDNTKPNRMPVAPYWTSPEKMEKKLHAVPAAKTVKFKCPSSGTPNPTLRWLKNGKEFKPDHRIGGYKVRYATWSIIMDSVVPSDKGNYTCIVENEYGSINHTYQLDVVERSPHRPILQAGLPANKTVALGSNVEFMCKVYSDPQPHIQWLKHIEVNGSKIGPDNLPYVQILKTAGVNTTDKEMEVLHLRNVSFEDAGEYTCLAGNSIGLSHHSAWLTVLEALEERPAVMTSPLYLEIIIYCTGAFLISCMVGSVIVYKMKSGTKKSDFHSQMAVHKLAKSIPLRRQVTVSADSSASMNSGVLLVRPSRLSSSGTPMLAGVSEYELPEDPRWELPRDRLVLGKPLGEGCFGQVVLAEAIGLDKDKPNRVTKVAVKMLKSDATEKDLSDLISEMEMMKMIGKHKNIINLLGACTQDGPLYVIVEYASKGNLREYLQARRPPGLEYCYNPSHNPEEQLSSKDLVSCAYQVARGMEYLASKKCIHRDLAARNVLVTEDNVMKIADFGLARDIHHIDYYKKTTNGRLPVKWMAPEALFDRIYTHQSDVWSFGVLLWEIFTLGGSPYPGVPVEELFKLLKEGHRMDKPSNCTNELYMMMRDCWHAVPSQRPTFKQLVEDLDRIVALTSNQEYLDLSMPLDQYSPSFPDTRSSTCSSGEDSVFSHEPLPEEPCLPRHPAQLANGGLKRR
Sequence of Grb2 SH2 (P62993 whole entry, looked up, the tested form may be a part): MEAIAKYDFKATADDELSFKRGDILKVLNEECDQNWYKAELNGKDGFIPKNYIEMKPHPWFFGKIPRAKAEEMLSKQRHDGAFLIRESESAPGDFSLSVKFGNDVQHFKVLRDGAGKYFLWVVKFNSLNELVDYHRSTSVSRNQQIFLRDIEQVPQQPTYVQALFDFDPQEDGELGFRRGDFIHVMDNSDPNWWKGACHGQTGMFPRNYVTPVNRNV

Sequence	phosphorylation enrichment (Hck)	phosphorylation enrichment (c-Src)	phosphorylation enrichment (Jak2)	phosphorylation enrichment (Fyn)	phosphorylation enrichment (EPHB2)	phosphorylation enrichment (EPHB1)	phosphorylation enrichment (AncSZ)	phosphorylation enrichment (Fer (mouse))	phosphorylation enrichment (MERTK)	phosphorylation enrichment (FGFR3)	phosphorylation enrichment (Fes)	phosphorylation enrichment (c-Abl (mouse))	phosphorylation enrichment (FGFR1)	SH2 binding enrichment (c-Src SH2)	SH2 binding enrichment (SHP2-C SH2)	SH2 binding enrichment (Grb2 SH2)
YETSHYPASPD [CTNND2_Y1217]	0.421	0.489	0.7	0.434	0.512	0.382	0.858	0.484	0.42	0.626	0.771	0.528	0.454	0.76	0.723	0.739
YGAHNHHPLPV [OAT_Y55_Y55H]	0.458	0.506	0.62	0.415	0.38	0.413	0.538	0.693	0.516	0.473	0.696	0.671	0.408	0.919	1.05	0.963
YKTPIYPYLLP [PLD2_Y578_T577I]	0.628	0.707	1.51	0.787	0.744	0.816	1.14	0.695	2.08	1.53	0.857	0.899	2.43	2.4	1.04	0.953
YSMGCYEIYLG [HMGCL_Y198_S201Y]	4.95	5.79	1.41	6.34	8.68	4.78	4.43	5.57	4.69	2.19	2.02	1.37	2.06	0.627	0.641	0.713
YSTDCYRVGGH [NTRK2_Y707_Y706C]	0.45	0.415	0.639	0.438	0.555	0.554	0.733	0.414	3.67	0.683	0.827	0.79	0.594	0.896	0.735	0.891
YVGGFYGGCNE [CTSC_Y352]	0.984	0.786	1.06	0.864	0.553	0.54	1.17	0.786	0.682	0.962	1.14	0.869	0.639	1.23	0.651	0.77
YYHCTYKQRMI [CLEC12A_Y242_K244Q]	1.1	0.773	1.73	0.693	0.527	0.63	1.64	0.452	3.68	7.01	1.01	1.4	9.07	1.41	0.953	1.41
